How the values were obtained:
Assay in all cases: SPR
[1] = biological target: Syrian hamster FcγRI, soluble ectodomain (Syrian hamster (Mesocricetus auratus))
[2] = biological target: Syrian hamster FcγRIII, soluble ectodomain (Syrian hamster (Mesocricetus auratus))
[3] = biological target: Syrian hamster FcγRIIb, soluble ectodomain (Syrian hamster (Mesocricetus auratus))
[4] = biological target: Syrian hamster FcγRIV, soluble ectodomain (Syrian hamster (Mesocricetus auratus))

Substance | Kd [1] [µM] | Kd [2] [µM] | Kd [3] [µM] | Kd [4] [µM]
Mouse IgG1 | > 1 | 0.0781 | 0.143 | > 1
Hamster IgG1 | > 1 | 0.0355 | 0.0562 | > 1
wild-type human IgG1 (from UniProt P01857) | 0.737 | > 1 | > 1 | 0.102
human IgG1 Fc domain variant GAALIE (from UniProt P01857) | > 1 | 0.233 | 0.328 | 0.00952
Mouse IgG2a | 0.338 | 0.572 | 1.14 | 0.0147
Hamster IgG2a | 0.496 | 0.702 | 1.03 | 0.0171
human IgG1 Fc domain variant V11 (from UniProt P01857) | > 1 | 0.26 | 0.345 | > 1
